According to patent US20220041665A1, “POLYNUCLEOTIDE AND USES THEREOF” (Helsingin yliopisto, priority 2019, published 2022):
Each block holds one binder with its values, some of them ahead of it.

Legend:
Assay in all cases: cell-based or functional assay
[1] = target: all targets (endogenous loci tagged homozygously with miniIAA7-mEGFP N- or C-terminally)
[2] = target: NMIIa (MYH9) tagged N-terminally with miniIAA7-mEGFP (Arabidopsis thaliana; human) (UniProt P35579)
[3] = target: LBR tagged C-terminally with miniIAA7-mEGFP (human; Arabidopsis thaliana) (UniProt Q14739)
[4] = target: Non-nuclear targets expressed at low levels (seipin, NPC1, PEX3 and Glut1), tagged with miniIAA7-mEGFP
[5] = target: seipin tagged with miniAID-mEGFP (miniAID = AtIAA17 amino acid residues 68-132) (human; Arabidopsis thaliana) (UniProt Q96G97)
[6] = target: seipin tagged with miniIAA7-mEGFP (miniIAA7 = AtIAA7 amino acids 37-104) (human; Arabidopsis thaliana) (UniProt Q96G97)

target protein level at 0 h IAA (basal degradation), FACS of GFP (% levels of control) [1]: 86 to 109
target protein level at 16 h IAA, FACS of GFP [1]: 2 to 5 % levels
target protein level at 1 h IAA, FACS of GFP [2]: < 12%
target protein level at 1 h IAA, FACS of GFP [3]: < 12%
target protein level at 1 h IAA, FACS of GFP [4]: 2 to 5%
target protein level before IAA addition (0 h IAA), FACS of GFP, compared to OsTIR1 [5]: 5 fold
auxin-inducible protein reduction at 1 h IAA, FACS of GFP, compared to miniAID [6]: 3 fold
B1: Arabidopsis thaliana AFB2 (AtAFB2), auxin perceptive F-box protein, tagged with mCherry (receptor, not shown: large carriers)
chain: MNYFPDEVIEHVFDFVTSHKDRNAISLVCKSWYKIERYSRQKVFIGNCYAINPERLLRRFPCLKSLTLKGKPHFADFNLVPHEWGGFVLPWIEALARSRVGLEELRLKRMVVTDESLELLSRSFVNFKSLVLVSCEGFTTDGLASIAANCRHLRDLDLQENEIDDHRGQWLSCFPDTCTTLVTLNFACLEGETNLVALERLVARSPNLKSLKLNRAVPLDALARLMACAPQIVDLGVGSYENDPDSESYLKLMAVIKKCTSLRSLSGFLEAAPHCLSAFHPICHNLTSLNLSYAAEIHGSHLIKLIQHCKKLQRLWILDSIGDKGLEVVASTCKELQELRVFPSDLLGGGNTAVTEEGLVAISAGCPKLHSILYFCQQMTNAALVTVAKNCPNFIRFRLCILEPNKPDHVTSQPLDEGFGAIVKACKSLRRLSLSGLLTDQVFLYIGMYANQLEMLSIAFAGDTDKGMLYVLNGCKKMKKLEIRDSPFGDTALLADVSKYETMRSLWMSSCEVTLSGCKRLAEKAPWLNVEIINENDNNRMEENGHEGRQKVDKLYLYRTVVGTRMDAPPFVWILGGSGG

basal degradation at 0 h IAA, FACS of GFP [1]: 12 to 37%
depletion efficiency at 16 h IAA, FACS of GFP [1]: 2 to 7%
B2: TIR1 derived from Oryza sativa (OsTIR1) (receptor, UniProt Q7XVM8 1-575, looked up)
chain: MTYFPEEVVEHIFSFLPAQRDRNTVSLVCKVWYEIERLSRRGVFVGNCYAVRAGRVAARFPNVRALTVKGKPHFADFNLVPPDWGGYAGPWIEAAARGCHGLEELRMKRMVVSDESLELLARSFPRFRALVLISCEGFSTDGLAAVASHCKLLRELDLQENEVEDRGPRWLSCFPDSCTSLVSLNFACIKGEVNAGSLERLVSRSPNLRSLRLNRSVSVDTLAKILLRTPNLEDLGTGNLTDDFQTESYFKLTSALEKCKMLRSLSGFWDASPVCLSFIYPLCAQLTGLNLSYAPTLDASDLTKMISRCVKLQRLWVLDCISDKGLQVVASSCKDLQELRVFPSDFYVAGYSAVTEEGLVAVSLGCPKLNSLLYFCHQMTNAALVTVAKNCPNFTRFRLCILEPGKPDVVTSQPLDEGFGAIVRECKGLQRLSISGLLTDKVFMYIGKYAKQLEMLSIAFAGDSDKGMMHVMNGCKNLRKLEIRDSPFGDAALLGNFARYETMRSLWMSSCNVTLKGCQVLASKMPMLNVEVINERDGSNEMEENHGDLPKVEKLYVYRTTAGARDDAPNFVKIL
